The source of these data is article PMC9891256.

For this experiment, the target named is KREPA2 αH1 group mutant of the negatively charged glutamic and aspartic acid residues (to alanine) (T. brucei). The experiment can be described thus: pull-down.

For the substance “kinetoplastid RNA editing ligase 1 (KREL1) full-length (51-469) (enzyme)”, the decrease in binding efficiency against the wild type is 75%.
